{
  "source": "patent US20260092110A1",
  "about": "(Kyowa Kirin, published 2026)",
  "key": {"[1]": {"molecular_target": "extracellular domain protein of human MOG to which FLAG-Fc is added at the C-terminus (hMOG-FLAG-Fc) (human)", "assay": "phage ELISA"}, "[2]": {"molecular_target": "T1, human MOG (hMOG) expressed on HEK293, Expi293F or L929 cells (human, UniProt Q16653 30-247)", "T1 construct": "also called hMOG/HEK293; hMOG/HEK293F", "T1 chain": "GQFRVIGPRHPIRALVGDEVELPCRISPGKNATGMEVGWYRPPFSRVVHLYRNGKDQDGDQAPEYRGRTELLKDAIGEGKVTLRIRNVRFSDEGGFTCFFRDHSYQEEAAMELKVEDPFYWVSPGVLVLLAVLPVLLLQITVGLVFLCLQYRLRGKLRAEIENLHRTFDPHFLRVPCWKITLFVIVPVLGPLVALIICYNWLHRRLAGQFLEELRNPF", "assay": "phage clone on hMOG/Expi293F cells"}},
  "data": [
    {"binder": "MOG357 (scFv phage clone similar to MOG303 antibody) (scFv) scFv: EVQLVETGGGLVQPGGSLRLSCAASGFTFSSYAMSWVRQAPGKGLEWVSDINHSGGSTYYADSVKGRFTISRDNSKHTLYLQMNSLRAEDTAVYYCAKDYYDILTGSFFDYWGQGTLVTVSSGGGGSGGRASGGGGSDIVMTQSPSSLSASVGDRVTITCRASQGISSALAWYQQKPGKAPKLLIYDASSLESGVPSRFSGSGSGTDFTLTISSLQPEDFATYYCQQFNSYPWTFGQGTKVEIK", "values": [
      {"measurement": "binding result", "setting": "[1]", "value": "binds"},
      {"measurement": "binding result", "setting": "[2]", "value": "binds"}
    ]},
    {"binder": "MOG314 (scFv phage clone similar to MOG303 antibody) (scFv) scFv: QVQLVESGGGLVQPGGSLRLSCAASGFTFSSYAMSWVRQAPGKGLEWVSAISGRGSSTYYADSVKGRFTISRDNSKNTLYLQMNSLRAEDTAVYYCAKGYYDILTGSFFDYWGQGTLVTVSSGGGGSGGRASGGGGSDIQLTQSPSSLSASVGDRVTITCRASQGISSALAWYQQKPGKAPKLLIYDASSLESGVPSRFSGSGSGTDFTLTISSLQPEDFATYYCQQFNSYPYTFGQGTKLEIK", "values": [
      {"measurement": "binding result", "setting": "[1]", "value": "binds"},
      {"measurement": "binding result", "setting": "[2]", "value": "binds"}
    ]},
    {"binder": "MOG315 (scFv phage clone similar to MOG303 antibody) (scFv) scFv: EVQLVESGGGLVQPGGSLRLSCAASGFTFSTYAMSWVRQAPGKGLEWVSAISGSGVSTYYADSVKGRFTLSRDNSKNTLYLQMNSLRAEDTAVYYCAKAYYDILTGNFLDYWGQGTLVTVSSGGGGSGGRASGGGGSAIQLTQSPSSLSASVGDRVTITCRASQGISSALAWYQQKPGKAPKLLIYDASSLESGVPSRFSGSGSGTDFTLTISSLQPEDFATYYCQQFNSYPLTFGGGTKVEIK", "values": [
      {"measurement": "binding result", "setting": "[1]", "value": "binds"},
      {"measurement": "binding result", "setting": "[2]", "value": "binds"}
    ]},
    {"binder": "MOG476 (scFv phage clone similar to MOG303 antibody) (scFv) scFv: EVQLVESGGGLVQPGGSLRLSCAASGFTFSSYAMNWVRQAPGKGLEWVSAISYSGRSTYYADSVKGRFTISRDNSKNTLYLQMNSLRAEDTAVYYCAKGLYDILTGGGFDYWGQGTLVTVSSGGGGSGGRASGGGGSDIQMTQSPSSLSASVGDRVTITCRASQGISSALAWYQQKPGKAPKLLIYDASSLESGVPSRFSGSGSGTDFTLTISSLQPEDFATYYCQQFNSYPSTFGQGTRLEIK", "values": [
      {"measurement": "binding result", "setting": "[1]", "value": "binds"},
      {"measurement": "binding result", "setting": "[2]", "value": "binds"}
    ]},
    {"binder": "MOG456 antibody (anti-MOG scFv displayed on phage, pCANTAB_MOG456) (scFv) scFv: EVQLVESGGGLVKPGGSLRLSCAASGFTFSSYSMHWVRQAPGKGLEWVSSIGSRSRYIYYADSVKGRFTISRDNAKNSLYLQMNSLRAEDTAVYYCAKGYYDILTGSLFDYWGQGTLVTVSSGGGGSGGRASGGGGSDIVMTQSPSSLSASVGDRVTITCRASQGISSALAWYQQKPGKAPKLLIYDASSLESGVPSRFSGSGSGTDFTLTISSLQPEDFATYYCQQFNSYPWTFGQGTKVEIK", "values": [
      {"measurement": "binding result", "setting": "[1]", "value": "binds"},
      {"measurement": "binding result", "setting": "[2]", "value": "binds"}
    ]},
    {"binder": "MOG329 antibody (anti-MOG scFv displayed on phage, pCANTAB_MOG329) (scFv) scFv: QVQLVESGGGLVQPGGSLRLSCAASGFAFRNYAMNWVRQAPGKGLEWVSAISGSGGSTYYADSVKGRFTISRDNSKNTLYLQMNSLRAEDTAVYYCARDYGGISPFDYWGQGTLVTVSSGGGGSGGRASGGGGSDIQLTQSPSSLSASVGDRVTITCRASQGISSALAWYQQKPGKAPKLLIYDASSLESGVPSRFSGSGSGTDFTLTISSLQPEDFATYYCQQFNSYPHTFGQGTKVDIK", "values": [
      {"measurement": "binding result", "setting": "[1]", "value": "binds"},
      {"measurement": "binding result", "setting": "[2]", "value": "binds"}
    ]},
    {"binder": "MOG426 (scFv phage clone similar to MOG301 antibody) (scFv) scFv: QVQLVQSGAEVKKPGASVKVSCKASGYSFNSYGINWVRQAPGQGLEWMGWISAYTGKTSYAQKVQGRVTMTTDRSTSTAYMELRSLRSDDTAMYYCAREYDILTGYSDAFDTWGQGTMVTVSSGGGGSGGRASGGGGSEIVLTQSPATLSLSPGERATLSCRASQSVSSYLAWYQQKPGQAPRLLIYDASNRATGIPARFSGSGSGTDFTLTISSLEPEDFAVYYCQQRGNWPLTFGGGTKLEIK", "values": [
      {"measurement": "binding result", "setting": "[1]", "value": "binds"},
      {"measurement": "binding result", "setting": "[2]", "value": "binds"}
    ]}
  ]
}
